Laboratory results taken from a protein production outcome set (Wang et al. 2014).

Experiment: label from the status in PepcDB records

Sequence	protein production
MRTLILAAALALAPLSAAAQDRAQTLADIKAEIAALQGQFNDLKRELVSTGAATSGAAGGSALQRMDAMEAAIAQVTAKAESLELKINRVVSDGSNRVGDLEFRVCELEEGCDIGAIGETKPLGGEASAAPAPTPAPAPAADPAGTFAVNEKADFDRAQEVLGQGDFRTAADLFKTFAETYTGGQLTYEAHYLRGEALSRLGETANAARAYLESFSGDPDGPRAPEALLKLGRALGDLRQTPEACVTLAEVGTRFPGSPSAAEAATTMQGLGCS	failed
MIRNVLKLLALLADEIVIVALVIIFLRRVSARLAVIVGGALILFNLFLVKLLWGTLKKKAEVGAEALIGEKAVVVEDLNPVGLVKVKNELWTAECISGTARRGEKVRIVQVKGAKLLVEKDDNAGKFL	failed
MKIKANGNEVQIEREMTIFEMLDALNVSMKEYVTVQLNGQIIPRSEYDKVTVKDGDEVEFLYFMGGGLL	failed
MTSLEEITKAIMADSQNKVFTEKNIEPLFAAPKTARINIVGQAPGIKAQESRLYWNDKSGDRLREWMGVDYDTFYHSGYFAVIPMDFYYPGKGKSGDLPPRKGFAQKWHQPILDLLPDIQLTILIGNYAQKYYLHQKSSVKLTDTVAHYKKYLPDYFPLVHPSPRNQIWMSRHPWFEAQVVPDLKKIIQQIIQSS	not failed
METKANYTIVGIFTLIVIAAAFGFVYWMAEFGRGGPTAQLVVRIPGSANGLSVGSPVRFNGIPVGTVRGLAIDRDDPAYSIAFTEVQADAPVFPSTRAVLEIQGLTGAAYIELSGGNKDGERILQKSVESGVPAELTADLSSVTNLLATADKILKRADGAIGELQGFVQDARGPLTQTVRNAEKFSDALAANSDGIKNFIASLSSLSTTVQSVSVRLDGTLTAVENLVKAVDAGKIDSILSNVDKVTKDVASASSDIQGIMETVQSTARNFEAASTEVQTVVKRADELLASVDPAKVSTVVGDVSAATADARDAVANFKRIADDVGARRADIDQAVSDFTEMGRKLNLASSRVDGILAKVDGMLGTDDANSLFAKARETLTSFKAVADNLNARIGPIADNLTRFSSSGLKDFQALIGSTRQTVDNLNNAITNIDRDPQRLIFGGETVKQYDGRTRRLEHHHHHH	failed
MTLSTINPMKKSRIDNIHHTQILFFSDENQIDQEAPYYDALLDLEKDYPEQIDKMKVYDKKEGWEDEIETVPTLMVVDQRHVVVKIEGCVKKKEDIIKPLQHVLSKLEHHHHHH	not failed
MIELDYLTIAFGGAIGAVLRYLVSRTINSLLPFSYIPLGTIIVNSVGSFFLSFLMFAAIEKVPLSKEAILFFGTGLLGAFTTFSTFTYETLSLIEESPARGVAYALANLLFAFTCAYFGMILGRGKV	failed
MVEMNKRGQFFIIGGVILSIGLILFFLLGFNSYTSDGSYLTVFKMKDVKNSIESCLINSLTSNSNLSKNLDMLKNNYKDEGIEINYKKIIFSNIRYEAKNLTFNFSLYNGNFSYNISNYGFGGAFNGSLNVSNYVFSKNLLLNISENGSVTGSFNITGSYVNVFVYDRFGNLILNETIYNNSNEKSLYYYILNVSKEGILLYLLWQRMFLTTHWQKMYPL	failed
MDYTASYYTDEELAKLFKAAKGDPLELPIVLAAYYGLRRSEIIGLRWDAIDFNPDDPKITIQFTVTEVNFGDGQGNVIIEKEGTKSKASKRTLPLVKPIADLLLQKKKDIENNRRLCGSCYNDKYLDFVHVNEIGERMKPNYISQHFALLLEKHGLKKIRFHDLRHSCASLLYANGVSLKQIQEWLGHSDISTTANIYTHLDYNSKIATANAILPVLFDQLEHHHHHH	failed
MSTRWLLLAAFAAGAALFSSFLKALFFAACLACAFRPLSRRLEAWRGPLVAAGLTTALAGMCLVIPVAVVGSLAAPQAVQGLAVLDGLRESNWFTSPEAQQLVDDIDARLRDLPGLEGGLRGLARNAAGILGTAARTALAGGVGLAGGALNAVLQGFIVLMLIFVFTAYARHIQRFALALLPMPRAMLDRCVTAFRGAVVGVLAGVVLVAAIQGVLCGIGFAVAGVPQAAFWGFIAAMVAPIPVVGTMAVWIPACAWLWFAGKTTAAIGLVLWSAIIVSGSDNILRPIFLKTGIEAPIALIFLAIICGLAAFGPMGLLLGPVLLALGLQLAREGLPGAPGVSGVSGAVEPRE	failed
VKRKGVEVIIALDISNSMLAQDVQPSRLEKAKRLISRLVDELDNDKVGMIVFAGDAFTQLPITSDYISAKMFLESISPSLISKQGTAIGEAINLATRSFTPQEGVGRAIIVITDGENHEGGAVEAAKAAAEKGIQVSVLGVGMPEGAPIPVEGTNDYRRDREGNVIVTRLNEGMCQEIAKDGKGIYVRVDNSNSAQKAISQEISKMAKSDVE	not failed
MKELIKEHQKDINPALQLHDWVEYYRPFAANGQSANYIPALGKVNDSQLGICVLEPDGTMIHAGDWNVSFTMQSISKVISFIAACMSRGIPYVLDRVDVEPTGDAFNSIIRLEINKPGKPFNPMINAGALTIASILPGESAYEKLEFLYSVMETLIGKRPRIHEEVFRSEWETAHRNRALAYYLKETNFLEAEVEETLEVYLKQCAMESTTEDIALIGLILAHDGYHPIRHEQVIPKDVAKLAKALMLTCGMYNASGKYAAFVGVPAKSGVSGGIMALVPPSARREQPFQSGCGIGIYGPAIDEYGNSLTGGMLLKHMAQEWELSIF	not failed
MKTTLIISTYNRPEALSVCLDSVRFQTVMPDEVIVGDDGSTSETKDLIESFKKDFPVPLIHLWQEDKGFRLAMMRNKSVAAATGDYIIEIDGDIFLHNKFVEDHKRLAKPGHYLRGTRVNLGQKLTEEICKSKVNRRIYPWTIGIQNRAETAIHSTPVSNFFADRYKKNVSSGLGCNMSFWRSDFLAINGYDEFFEGWGKEDDDLTHRLQRKGCKKRSLRFAGIVYHLWHGHESMESDQKNAEYFRKNNEKNIVYCENGVSKYLKQELEHHHHHH	not failed
MSCYSDSITPDSFSGIVFALEGVSRSIVLINGPSGCKYYHSAVSDNQTLRQYEFDPFNYSEKWYFGQPRVPCTYLDSDDYIYGSTDKLTEALEFLRDNAPFDLLCIVNSPGAALIGDDLRGIAGRIIKEKSVVIIETPDFSRDICTGYETAAAALLDSLPLNSAARSQPNTVNILGLSIFHKYFAGDILELRRLLELCGVTVNCFLCADCDIDTIRRIPEAALNIVIHPEYGMKTARCLKERYGTPFYLCDGPPIGFSATEKFIGGICTALGCDSSLFRRESERARARAYAYISQVNSLTGLPKGVHFAVEGTYSELYAYTSFLVRYFGMIPEALSVLNEGSDCCKERLQALLNGLALPQALDRDLTETDSELVFASGNTIAKLKLRRHMFSGIEISLPSLGYIDVIPKTHIGLQGALMLTEQVLNGLAF	failed
SNIRLIATDMDGTLTQQGRFSAALLQTLENLKAAGLPILIVTGRSAGWVSGISSLMPIAGAIGENGGLFYPADSEHPLLLTPIADLTGHRQNLALVFQKLKQKFPQIQESGDNRFRITDWTFDVAGLTLAELQLIGNLCQDMGWGFTYSNVQCHIKPQGQEKAIALLQVLQKYFPDYSPTQVVTVGDSPNDESLFNQRYFPLSVGVANVLKYAHQLQHQPSYVTTTAEGEGFCELCSYIL	failed
MQDSSSQHEPLWDRFGDLTVWKRGDQRAPHKPLLILYALGRLAQGDRWLRFSDIEEDLTDLLIEFGPPRQSHHPEYPFWHLRSDGVWVVPEADVLEMRQSASNPPKTELREKEARGGFSDDIHQAFRNDSELRRGIARLLLSSHFPTSLHEDIATAVSLDLEGAASERRDPEFRTQVLQAYQYRCAICGFNLQLGMSGTPIGVEAAHIKWKQARGPDEISNGIALCALHHKMLDKGALHVTEDLRLFVSEAVHGSQPHLSRLQDRHGNRIHTPQRETYYPNGEVVTWHVNEVFRGPPRV	failed
MNSPANITDPLVLFMPSGKRGRFPVGTPVLDAARQLGVYVESVCGGRATCGRCQIEVQEGNFAKHKIVSSNDHISPKGPKEERYERVRGLPERRRLSCSAQILGDLVIDVPQDTVINAQTIRKDADTRVIARDTAIRMCYVEIEEPDMHKPLGDLDRLKIALMKDWGFKNLEFDFYLLPQVQGILRKGNWTATAAIHKDADSDIARVIALWPGLKNEAYGLACDIGSTTIAMHLVSLLSGRVAASSGTSNPQIRFGEDLMSRVSYVMMNPDGREGMTVAVREAISSLVDKVCAEGNVQRNDILDSVFVGNPIMHHLFLGIDPTELGGAPFALAVSGAVRIKASDIGLKLNQGARLYMLPCIAGHVGADAAAVTLSEGPHRQDEMMLIVDVGTNAEIVLGNRARVVAASSPTGPAFEGAEISGGQRAAPGAIERVRIDPDTLEPKYRVIGSELWSDEPGFLDSVQATGVTGICGSGIIEIVAEMYLAGIISEDGVVDGSLAARSPRVTANGRTFSYVLKEGEPKITITQTDVRAIQLAKAALYAGTKLLMEKQNTEHVDRIHFAGAFGSFIDPKYAMVLGLIPDCDLDKVSAVGNAAGAGARMALLNRGYRREIEETVSQIEKIETALEPKFQEHFVYAMALPNKVDPFPKLSAAVKLPPRKTVSEDGIAGDATPRRRSREGHAARRSRE	failed
MNNTGLSVKKVVAIGIGSAIYVILARFTSIPTPIPNTNIELVFPFLAFFASIYGATVGFSVGFIGHALSDFIMYGQTWWSWVLATGILGWIIGLAYKRLDLKNGIFGLKQIILFNIVQIIANILAWIVVAPIGDIIIYSEPANKVFVQGISATISNGISILIIGTILLKAYASTKIKKGSLRKED	failed
MSFDISELLTLYDVVTFSFPERYEDLMREIIEKATRLFGVRRLAIVLREGERYKCIERWGFRRDEEVLERIKNGGENSFIYLMRNGEQGLLYIEPPGRISEREKRLYTIFARRIENIIARKQIEEKIKNSEQEKKVILDSIVELLVFQNPDNRILWANRAAAEYAGARSEELAGRFCYEALHHRDEPCEECPVIKALDTGVPQEGIIASLEGRQFFVRGYPVKKENGLIEGIVEVSVDVTERMQAEEAFRTIFNSVHDAIFIHTLDGKIIDVNQTMLRMYVINSKEEAIKLSIIDDYSIPGSTAEQLPLLWQKVISGENLLFEWKARRPVDGSVFDVEVFLKKISLSKKDVILAAVRDITERKREEELLRNLFTHSPIGMYIVSEGKFQLINPQFEILTGYRQDKLIGMESLNLVVPEDRKMVRSNAIKMLKGEAVEPYEFRIVTGQGDIRWMEETVASIWHDGKRVTLGNIIDITQKKKFEQKLAYISLHDQLTALYNRAYFEEELKRLSTSRKYPITIIVADVNGLKLVNDTMGHDKGDELLTACARVLKKAFRSSDVVARVGGDEFVALLPRTDGKTGKSILKRLRLFIDKYNQEHPELPLSVSFGIATADTPEQSLKEIYKKADDLMYQEKLNLGSSARSKIVNALLTALSERDYITEGHARRMQKLCQDLGEKVGLSAQQLANLSLLAQVHDLGKVGIPDRILFKRGPLTEKEWEVMRQHPEKGYRIAMSSPDLAGIADLILKHHEKWDGTGYPLGLKEEEIPIECRILSIVDAFDAMTSGRPYCRTKTIEDALKEIRRCAGTQFDPRLAEAFIEMITSEKFTAGEKEVAT	failed
LPPKKFGNPGERLRKKKWDLSELPKFEKNFYVEHPEVARLTPYEVDELRRKKEITVRGGDVCPKPVFAFHHANFPQYVMDVLMDQHFTEPTPIQCQGFPLALSGRDMVGIAQTGSGKTLAYLLPAIVHINHQPYLERGDGPICLVLAPTRELAQQVQQVADDYGKCSRLKSTCIYGGAPKGPQIRDLERGVEICIATPGRLIDFLESGKTNLRRCTYLVLDEADRMLDMGFEPQIRKIVDQIRPDRQTLMWSATWPKEVRQLAEDFLRDYTQINVGNLELSANHNILQIVDVCMESEKDHKLIQLMEEIMAEKENKTIIFVETK	failed
MSLAHPPRLNDDKPVIWTVSVTRLFELFRDISLEFDHLANITPIQLGFEKAVTYIRKKLANERCDAIIAAGSNGAYLKSRLSVPVILIKPSGYDVLQELAKAGKLTSSIGVVTYQETIPALVAFQKTFNLRLDQRSYITEEDARGQINELKANGTEAVVGAGLITDLAEEAGMTGIFIYSAATVRQAFSDALDMTRMSLRHNTHDATRNALRTRYVLEGHHHHHH	not failed
